Test results as given in the DeepSol protein solubility set.

Test: soluble on expression in E. coli; label from the status in PepcDB or PDB records
With “MGSDKIHHHHHHMIRFKDIHIPKPCSVEYDTLPGDDIKRFCGSCEKYVYDFRGKDQAYLNAVFSATGKACGIYYADQIQASPALKTNRPFYSSFVSKLIATSLFLRIFLTSNNTKAHRTEPQTIVQQTTDSTELKTIHTGNDKAMYRVTVDIYKNDTLEESFLLENQNSIYLPDSIKPLDKIKVVVSTVRYNIPTSKNRTRSGKYMSNKTYYTTEQKKTYHFNFAGCNKIIIKIRHTKFIHIFLKKRTAIMGLVCPSDFW” the “soluble on expression in E. coli” value was “not soluble”. In the case of “ASITGDALVALPEGESVRIADIVPGARPNSDNAIDLKVLDRHGNPVLADRLFHSGEHPVYAVRTVEGLRVTGTANHPLLCLVDVAGVPTLLWKLIDEIKPGDYAVIQRSAFSVDCAGFARGKPEFAPTTYTVGVPGLVRFLEAHHRDPDAKAIADELTDGRFYYAKVASVTDAGVQPVYSLRVDTADHAFITNGFVSHN”, the “soluble on expression in E. coli” value is reported as “soluble”. With “MSLSTERTERVRPQRVEQNLPPLSWGGSGVQTAYWVQEAVQPGDSLADVLARSGMARDEIARITEKYGGEADLRHLRADQSVHVLVGGDGGAREVQFFTDEDGERNLVALEKKGGIWRRSASEADMKVLPTLRSVVVKTSARGSLARAEVPVEIRESLSGIFAGRFSLDGLKEGDAVRLMYDSLYFHGQQVAAGDILAAEVVKGGTRHQAFYYRSDKEGGGGGNYYDEDGKVLQEKGGFNIEPLVYTRISSPFGYRMHPILHTWRLHTGIDYAAPQGTPVRASADGVITFKGRKGGYGNAVMIRHANGVETLYAHLSAFSQAEGNVRGGEVIGFVGSTGRSTGPHLHYEARINGQPVNPVSVALPTPELTQADKAAFAAQKQKADALLARLRGIPVTVSQSDEGHHHHHH” the “soluble on expression in E. coli” value was “soluble”. With “LANKQIESRIIQFDVEFPSDEVAKQLSIEKTVPVYHIIRLRKVEGEPYVIEETYMPSNVISELNEDVLHGSVYRHITETLKLTIAGSHRKIRADKSSALDREYLECAPDDPVLEVEQVAFLNTGEPFEYSFARHRYDKFVFSSVHIRK” the “soluble on expression in E. coli” value was “not soluble”. In the case of “MATGAMSRSNDWTKSLSDAQPVPYWLDDPGRPRPEAALTGTETCDLLVVGGGYSGLWTALIAKERDPGRDVVLIEGREVGWAASGRNGGFCAASLTHGLSNGLTRWPDDIHRLEELGARNLDAIEAAVARHGLDCDFERTGEIDVATEPHQARELEEWYAEIRAQGLAEGVEYLDAEAVREQVDSPTFRAGLWDRRGVAMVNPAKLAWGLKRACLALGVRVHEHTPALTLKPYGAGMAVRTPYGAVRARTVALGTNVFPNLVRRVRPYTVPVYDYALMTEPLSDGQLASVGWQNRQGLGDSANQFHYFRLSRDNRILWGGYDAVYPYGGRVRAEYDHRPETYAKLAGHFFTCFPQLEGVRFTHAWGGAIDTCSRFSAFFGTAHRGRVAYAAGYTGLGVGATRFGAEVMLDLLSGERTERTELEMVRTKPLPFPPEPFAWTGIALTKWSLARADAHGGRRNLWLRTMDRLGLGFDSLEHHHHHH”, the “soluble on expression in E. coli” value is reported as “not soluble”. In the case of “SANQNFNNSETLGHQGSHVVTLQLRIDGMHCKSCVLNIEENIGQLLGVQSIQVSLENKTAQVKYDPSCTSPVALQRAIEALPPGNFKVSLPDGAEGSGTDHRSSSSHSPGSPPRNQVQGTCSTTLIAIAGMTCASCVHSIEGMISQLEGVQQISVSLAEGTATVLYNPAVISPEELRAAIEDMGFEASVVSESCSTNPLGNH”, the “soluble on expression in E. coli” value is reported as “soluble”. In the case of “MKQVKITTTSDLINGGCNACPNVKCTNYLVHVEDETIALETLTVADLVTLLALKEGFRQKLVMEMFEEYTVFERETHQVVFKEEETRILFQSKKQTIQSTLLCKEPQQVFQETQQILHQLFELEPFEFELVEETDE”, the “soluble on expression in E. coli” value is reported as “not soluble”. For “MSNSTMEATQMKVKLAVDEMIDDLDKTYLRDMQKSMFQCSARCCDNKKTTRDAVENCVESCNDGMKKAQGYLEKELGGLQDQLSRCAMTCYDKLVQQFGPDVNKYSESQKLSFNEKLDSCVSVCADDHIKLIPAIKKRFAKNT”, the “soluble on expression in E. coli” value was “not soluble”. With “SSFLGGLFGPACEIDVILNDAESRKTAELKTEEGKLEKHYLFYDGESVSGKVNINVKQTSKRLEHQGIRIEFVGQIELFSDKSNTHEFVNLVKELALPGELTQNRSYDFEFMQVEKPYESYVGANVRLRYFLKVTIVRRLSDLVKEYDLIVHQLATYPDVNNSIKMEVGIEDCLHIEFEYNKSKYHLKDVIVGKIYFLLVRIKIQHMELQLIKKEMTGIGPSTTTETETVAKYEIMEGAPVKGESIPIRLFLAGYDLTPTMRDVNKKFSVRYFLNLVLVDEEDRRYFKQQEIVLWRKAPEKMRKRNFHQRYESPEPRPSLSAEQPEM” the “soluble on expression in E. coli” value was “soluble”. With “MDGEKSGNRELYTKRVYEYDQVINQVLKHEENILSLIKKDTFGAAYKRLVLADEMIYLATLYLAKFRLSVALLGGKNENILNEARKTLYKPIIYLEEIVTDLIDAPFSEYEEGVDRISKITEKQRYYLIRKLGLVINLVIDAYGENTKWRWSFIDIEARFAVVAKNIMDLKEISQTGLNPHAEDYDTVIYHLRLVKKLFTKAADKYREKYEIVTNNISDFRTAILFLEGLRRVHMVLNEHREVEEIKRKIEIWKDKMEKDLKQKDKPKK” the “soluble on expression in E. coli” value was “not soluble”. For “MGSDKIHHHHHHMILSEVRIHNFRNIASTSLILNPNFNCITGPNGGGKTSLLEALYMLSCAHSFRSREITPIISYGQNQLNVFAHAYDESTISVQKSITDGTQIKLNNQFCCTTSQLAYALPCQVIYSDIFQIIDAGPSVRRSLLDWGLFHVKHDYLKIWKDYKRILSQRNALLKSRATYDHFIPWDQQLSQLANQLDKARNDYFLQWQPKFYQVLSDLTNISCTVEYYKGWDRKNAGQNMEELLQKSFDSDRKKLYTQYGPHQADLIISTEQYRVKHTLSRGQQKIILIALKLAQGQLLDKDCLYLIDDLAAELDDYHQRNLIKYLTQQKGQFVITNLINNNNYDILPIDSGLFEVNCGAIKNL”, the “soluble on expression in E. coli” value was “not soluble”. With “SVERIYQKKTQLEHILLRPDTYIGSVELVTQQMWVYDEDVGINYREVTFVPGLYKIFDEILVNAADNKQRDPKMSCIRVTIDPENNLISIWNNGKGIPVVEHKVEKMYVPALIFGQLLTSSNYDDDEKKVTGGRNGYGAKLCNIFSTKFTVETASREYKKMFKQTWMDNMGRAGEMELKPFNGEDYTCITFQPDLSKFKMQSLDKDIVALMVRRAYDIAGSTKDVKVFLNGNKLPVKGFRSYVDMYLKDKLDETGNSLKVIHEQVNHRWEVCLTMSEKGFQQISFVNSIATSKGGRHVDYVADQIVTKLVDVVKKKNKGGVAVKAHQVKNHMWIFVNALIENPTFDSQTKENMTLQPKSFGSTCQLSEKFIKAAIGCGIVESILNWVKFKAQVQLNKKCS” the “soluble on expression in E. coli” value was “soluble”. In the case of “MGSDKIHHHHHHMVILLNPNILESSFIPERLRARDSEISKIMEVVIKPALNNITTNLIIYGDSGTGKTVTMRFLAREVRNPKIFYINAISYRSVKNVLVELLSHEGVIISERASYANIYTRLEKAIEKYDKTVILVIDEAANILRTDEEGLYYLFRSKDSFDVNISAIFIAMDDPALLLNQRIKRSYGLFNELKFKRYSKDEILEIVRDRARMSLNTTSYDDTIIDYIAEISSEFGSARVAIDILAKAAHIAEYRRSENISYDDVRAAKSMISPYVTESKLASLDKYELAALLAICGCLSHSVSTDIACVSEQLKILREQYSLDPEMDIYEILRKLEGLGIINSYVESSGKSSGVRKKISIHDVPVSVLAEKIGNLLNGMA”, the “soluble on expression in E. coli” value is reported as “not soluble”. For “SIEKIWAREILDSRGNPTVEVDLYTAKGLFRAAVPSGASTGIYEALELRDGDKQRYLGKGVLKAVDHINSTIAPALISSGLSVVEQEKLDNLMLELDGTENKSKFGANAILGVSLAVCKAGAAERELPLYRHIAQLAGNSDLILPVPAFNVINGGSHAGNKLAMQEFMILPVGAESFRDAMRLGAEVYHTLKGVIKDKYGKDATNVGDEGGFAPNILENSEALELVKEAIDKAGYTEKIVIGMDVAASEFYRDGKYDLDFKSPTDPSRYITGDQLGALYQDFVRDYPVVSIEDPFDQDDWAAWSKFTANVGIQIVGDDLTVTNPKRIERAVEEKACNCLLLKVNQIGSVTEAIQACKLAQENGWGVMVSHRSGETEDTFIADLVVGLCTGQIKTGAPCRSERLAKYNQLMRIEEELGDEARFAGHNFRNPSVLHHHHHH”, the “soluble on expression in E. coli” value was “soluble”. With “MFHGKHPGGLSERGRALLLEGGKALGLDLKPHLEAFSRLYALLQEASGKVNLTALRGEEEVVVKHFLDSLTLLRLPLWQGPLRVLDLGTGAGFPGLPLKIVRPELELVLVDATRKKVAFVERAIEVLGLKGARALWGRAEVLAREAGHREAYARAVARAVAPLCVLSELLLPFLEVGGAAVAMKGPRVEEELAPLPPALERLGGRLGEVLALQLPLSGEARHLVVLEKAALTSLAYPRRPGVPERHPLC” the “soluble on expression in E. coli” value was “soluble”. For “MAHHHHHHMSKSDLFNDAQVPMRATVLRFGDDVEGASYPEAALTIDDAAVPAEAKVEVYHDGDNSGSAHESVPHHAQDLRHDFTSGILNCHESCAVCLDACLCMYCTASAHHNFLMNDTEGLYLPVCWGLFCVDVGLSAVSSYLPSSLHFHTYFMRSAIRRRYNLHSAGAPVNSNTHGSSSSGCDCTTESMLDLLTVCFCLPCAIAQHQREIMHQGDWCGGVFSNRYSLQTPATVHTI”, the “soluble on expression in E. coli” value was “not soluble”. In the case of “MIKQNSFVPYPEAMLPKGFKYPQSYLKLAQSTHAINYDEQYSFPWWFENAESNISEVIDIYFEITGIPNLLPFARNQEWAACFDISDKSGNPKIIVVNLDNTKYYETFENFDTWLKEAENDGW”, the “soluble on expression in E. coli” value is reported as “soluble”. For “MYDAYTPCEVALRLPVEVTCLAFQESNQTLLAGGRAGHLYAYTISANRRGFELTNICKSFHKKAVMELKVCQREDLLLCVSDGQLMAHKLSDPEYKVETLIHKVKPVQTFARFSPKTSGDLYVIVSSRKKLYLFKWGEKDGHKEFIEVALDYNPVFLDTPTSIRCVGEMVFFSVRNEYFSMTMQKDKTTTSPSEGSTPEGWNGFVTRLLNFNCQPGIVPMIDRRRVAFVRNEIVVTTDIWGQRPANVLSDEYKFSEVPMQIVYDSPYLVGMLSKGRVEVRSIFDGQLVQTMSLPKAMTLCSGARGQVFVAALSDIWILDTSQNLRKNVSHLIQERHFELAIQLAENSNLFAEEQKLEIKKKAALNLFNQKKFDESFALFGEIKTDISEVLSIIRMFPELLPDGFQSMTGVVSDMPANDRMRALLALGSYLSEIRTEHAKHIELYNRLYSSGAAKKTDEDEKAKLLLTLRVVDTTLLKCYIKTKPMLVDSLIRLQSNACTFEDAKKILESEGRLRSLFILYETRKKHEMALDLFIDQSSRPDADPFFDDAIQQIVEYLQSLGNSNLPLILKYAKWVLAKNLEAGVQIFTSDETEMARNLNRKAVVEFLKSECPDALIPYLEHVIFKWEEPSSYFHETLLEFYVARVNTLFKDYVHAFPDDENITRAGDEDGELGLYRKRLLKFLEVSHSYSPQTVLLQLAPHAFYEERALILGRLKQHEQALAIYVNTLKNVPAAEEYCRLYYNAHDETNSQVYLMLFRTLVHPNQQQLHSIPYHADSTPFGSYRDDVSEASTLVNSTSSYQPDVNTAIKILAKHADKIDTVGALNMLPATTPLRVVFSAINAVIQTTGRQASTRKMEKSVSQCAMSKKLERKNKAQSTKIIVNFSSECVVCEKKIAVSAFVRYPDGRLAHLYCHNDSQGGNRN”, the “soluble on expression in E. coli” value was “not soluble”. For “MKETIMNQKLTKRQAEVHTGRKGTAHRKKVVHTTAEDKKFQFSLKKLGVNNIPGIEEVNMFTHQGTVIHFNNPEVQASLAANTFTMTGHAETKQLTEMLLSIDHKPVLQMV”, the “soluble on expression in E. coli” value was “soluble”. For “MSLKSLSYKRIYKSQEYLATLGTIEYRSLFGSYSLTVDDTVFAMVSDGELYLRACEQSAQYCVKYPPVWLTYKKCGRSVTLNYYRVDESLWRNQLKLVRLSKYSLDAALKEKSTRNTRERLKDLPNMSFHLEAILGEVGIKDVRALRILGAKMCWLRLRQQNSLVTEKILFMLEGAIIGIHEAALPVARRQELAEWADSLTPKQEFPAELEEGHHHHHH”, the “soluble on expression in E. coli” value was “soluble”.
